Test results published in PMC7409301, “Natural Killer Cell Activation Receptor NKp30 Oligomerization Depends on Its N-Glycosylation” (Cancers, 2020).
Several values for one entry are separate records, joined by “and”; a condition that tells them apart may be missing. Identical values can stand only once.

B1: wild-type B7-H6 extracellular portion (with the odd cysteine Cys212) (domain or fragment, UniProt Q68D85 25-245, looked up)
chain: DLKVEMMAGGTQITPLNDNVTIFCNIFYSQPLNITSMGITWFWKSLTFDKEVKVFEFFGDHQEAFRPGAIVSPWRLKSGDASLRLPGIQLEEAGEYRCEVVVTPLKAQGTVQLEVVASPASRLLLDQVGMKENEDKYMCESSGFYPEAINITWEKQTQKFPHPIEISEDVITGPTIKNMDGTFNVTSCLKLNSSQEDPGTVYQCVVRHASLHTPLRSNFTL
modifications: N-glycosylated; disulfide bridges not linked correctly by mass spectrometry
notes: entire extracellular portion Asp25-Leu245 with two Ig-like domains; source: HEK293 cells, transient transfection, secreted, purified (IMAC, SEC); not shown: three amino acids left after cleavage of the secretion signal, N-terminal, kept
B2: NKp30: Endo F1 (protein)
parent chain: MAWMLLLILIMVHPGSCALWVSQPPEIRTLEGSSAFLPCSFNASQGRLAIGSVTWFRDEVVPGKEVRNGTPEFRGRLAPLASSRFLHDHQAELHIRDVRGHDASIYVCRVEVLGLGVGTGNGTRLVVEKEHPQLGAGTVLLLRAGFYAVSFLSVAVGSTVYYQGKCLTWKGPRRQLPAVVPAPLPPPCGSSAHLLPPVPGG

Legend:
[1] = biological target: the molecule itself; test: AUC; sedimentation velocity of wild-type B7-H6 at 0.5 mg/mL, c(s) distribution
[2] = sedimentation velocity AUC; conditions: glycan lost; control: NKp30_Stalk from HEK293S GnTI− (uniform glycans)
[3] = SEC-MALS; conditions: glycan lost; control: glycosylated NKp30_Stalk (HEK293T or HEK293S GnTI−)

Protein | stoichiometry N [1] | oligomerisation [2] | oligomerisation [3]
B1 | 2 and 4 |  | 
B2 |  | abolishes | abolishes
